Measurements published in patent publication US12099068B2, “Biomarkers for graft-versus-host disease” (Incyte Corporation, priority 2018, dated 2024).

Tested on: plasma proteins
Test: Plasma proteins modulated between baseline and day 28 in responders (CR, VGPR, PR; n = 19), Example 6 (Table 13)
Assay type: in vivo, human
Conditions: plasma protein (OLINK NPX); responders (CR, VGPR, PR; n = 19); itacitinib 200 mg or 300 mg QD with corticosteroids; day 28 vs baseline
Outline: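 Longitudinal comparison, day 28 versus baseline, with steroid-naive (N=10) and steroid-refractory (N=18) patients combined. Proteins measured by OLINK proximity extension, log2 normalized protein expression. Differences tested by t tests, ANOVA, Pearson correlation, P<0.05 significant.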

Row | Molecule | Fold Change, Decreased Expression from Baseline to Day 28 | Fold Change, Increased Expression from Baseline to Day 28
1 | PGLYRP1 (protein, UniProt O75594 22-196, looked up) Peptidoglycan recognition …: QETEDPACCSPIVPRNEWKALASECAQHLSLPLRYVVVSHTAGSSCNTPASCQQQARNVQHYHMKTLGWCDVGYNFLIGEDGLVYEGRGWNFTGAHSGHLWNPMSIGISFMGNYMDRVPTPQAIRAAQGLLACGVAQGALRSNYVLKGHRDVQRTLSPGNQLYHLIQNWPHYRSP | −1.6181 | 
2 | PLIN1 (protein, UniProt O60240 1-522, looked up) Perilipin-1: MAVNKGLTLLDGDLPEQENVLQRVLQLPVVSGTCECFQKTYTSTKEAHPLVASVCNAYEKGVQSASSLAAWSMEPVVRRLSTQFTAANELACRGLDHLEEKIPALQYPPEKIASELKDTISTRLRSARNSISVPIASTSDKVLGAALAGCELAWGVARDTAEFAANTRAGRLASGGADLALGSIEKVVEYLLPPDKEESAPAPGHQQAQKSPKAKPSLLSRVGALTNTLSRYTVQTMARALEQGHTVAMWIPGVVPLSSLAQWGASVAMQAVSRRRSEVRVPWLHSLAAAQEEDHEDQTDTEGEDTEEEEELETEENKFSEVAALPGPRGLLGGVAHTLQKTLQTTISAVTWAPAAVLGMAGRVLHLTPAPAVSSTKGRAMSLSDALKGVTDNVVDTVVHYVPLPRLSLMEPESEFRDIDNPPAEVERREAERRASGAPSAGPEPAPRLAQPRRSLRSAQSPGAPPGPGLEDEVATPAAPRPGFPAVPREKPKRRVSDSFFRPSVMEPILGRTHYSQLRKKS |  | 2.4338
3 | SPON2 (protein, UniProt Q9BUD6 27-331, looked up) Spondin-2: QPLGGESICSARALAKYSITFTGKWSQTAFPKQYPLFRPPAQWSSLLGAAHSSDYSMWRKNQYVSNGLRDFAERGEAWALMKEIEAAGEALQSVHAVFSAPAVPSGTGQTSAELEVQRRHSLVSFVVRIVPSPDWFVGVDSLDLCDGDRWREQAALDLYPYDAGTDSGFTFSSPNFATIPQDTVTEITSSSPSHPANSFYYPRLKALPPIARVTLVRLRQSPRAFIPPAPVLPSRDNEIVDSASVPETPLDCEVSLWSSWGLCGGHCGRLGTKSRTRYVRVQPANNGSPCPELEEEAECVPDNCV |  | 1.095
4 | CLEC10A (protein, UniProt Q8IUN9 1-316, looked up) C-type lectin domain family …: MTRTYENFQYLENKVKVQGFKNGPLPLQSLLQRLCSGPCHLLLSLGLGLLLLVIICVVGFQNSKFQRDLVTLRTDFSNFTSNTVAEIQALTSQGSSLEETIASLKAEVEGFKQERQAGVSELQEHTTQKAHLGHCPHCPSVCVPVHSEMLLRVQQLVQDLKKLTCQVATLNNNASTEGTCCPVNWVEHQDSCYWFSHSGMSWAEAEKYCQLKNAHLVVINSREEQNFVQKYLGSAYTWMGLSDPEGAWKWVDGTDYATGFQNWKPGQPDDWQGHGLGGGEDCAHFHPDGRWNDDVCQRPYHWVCEAGLGQTSQESH | −1.274 | 
5 | CLM-6 (protein, UniProt Q08708 21-224, looked up) CMRF35-like molecule 6: GYFPLSHPMTVAGPVGGSLSVQCRYEKEHRTLNKFWCRPPQILRCDKIVETKGSAGKRNGRVSIRDSPANLSFTVTLENLTEEDAGTYWCGVDTPWLRDFHDPIVEVEVSVFPAGTTTASSPQSSMGTSGPPTKLPVHTWPSVTRKDSPEPSPHPGSLFSNVRFLLLVLLELPLLLSMLGAVLWVNRPQRSSRSRQNWPKGENQ | −1.1356 | 
6 | COCH (protein, UniProt O43405 25-550, looked up) Cochlin: EGAAPIAITCFTRGLDIRKEKADVLCPGGCPLEEFSVYGNIVYASVSSICGAAVHRGVISNSGGPVRVYSLPGRENYSSVDANGIQSQMLSRWSASFTVTKGKSSTQEATGQAVSTAHPPTGKRLKKTPEKKTGNKDCKADIAFLIDGSFNIGQRRFNLQKNFVGKVALMLGIGTEGPHVGLVQASEHPKIEFYLKNFTSAKDVLFAIKEVGFRGGNSNTGKALKHTAQKFFTVDAGVRKGIPKVVVVFIDGWPSDDIEEAGIVAREFGVNVFIVSVAKPIPEELGMVQDVTFVDKAVCRNNGFFSYHMPNWFGTTKYVKPLVQKLCTHEQMMCSKTCYNSVNIAFLIDGSSSVGDSNFRLMLEFVSNIAKTFEISDIGAKIAAVQFTYDQRTEFSFTDYSTKENVLAVIRNIRYMSGGTATGDAISFTVRNVFGPIRESPNKNFLVIVTDGQSYDDVQGPAAAAHDAGITIFSVGVAWAPLDDLKDMASKPKESHAFFTREFTGLEPIVSDVIRGICRDFLESQQ | −1.22 | 
7 | PCDH17 (protein, UniProt O14917 18-1159, looked up) Protocadherin-17: LKNLNYSVPEEQGAGTVIGNIGRDARLQPGLPPAERGGGGRSKSGSYRVLENSAPHLLDVDADSGLLYTKQRIDRESLCRHNAKCQLSLEVFANDKEICMIKVEIQDINDNAPSFSSDQIEMDISENAAPGTRFPLTSAHDPDAGENGLRTYLLTRDDHGLFGLDVKSRGDGTKFPELVIQKALDREQQNHHTLVLTALDGGEPPRSATVQINVKVIDSNDNSPVFEAPSYLVELPENAPLGTVVIDLNATDADEGPNGEVLYSFSSYVPDRVRELFSIDPKTGLIRVKGNLDYEENGMLEIDVQARDLGPNPIPAHCKVTVKLIDRNDNAPSIGFVSVRQGALSEAAPPGTVIALVRVTDRDSGKNGQLQCRVLGGGGTGGGGGLGGPGGSVPFKLEENYDNFYTVVTDRPLDRETQDEYNVTIVARDGGSPPLNSTKSFAIKILDENDNPPRFTKGLYVLQVHENNIPGEYLGSVLAQDPDLGQNGTVSYSILPSHIGDVSIYTYVSVNPTNGAIYALRSFNFEQTKAFEFKVLAKDSGAPAHLESNATVRVTVLDVNDNAPVIVLPTLQNDTAELQVPRNAGLGYLVSTVRALDSDFGESGRLTYEIVDGNDDHLFEIDPSSGEIRTLHPFWEDVTPVVELVVKVTDHGKPTLSAVAKLIIRSVSGSLPEGVPRVNGEQHHWDMSLPLIVTLSTISIILLAAMITIAVKCKRENKEIRTYNCRIAEYSHPQLGGGKGKKKKINKNDIMLVQSEVEERNAMNVMNVVSSPSLATSPMYFDYQTRLPLSSPRSEVMYLKPASNNLTVPQGHAGCHTSFTGQGTNASETPATRMSIIQTDNFPAEPNYMGSRQQFVQSSSTFKDPERASLRDSGHGDSDQADSDQDTNKGSCCDMSVREALKMKTTSTKSQPLEQEPEECVNCTDECRVLGHSDRCWMPQFPAANQAENADYRTNLFVPTVEANVETETYETVNPTGKKTFCTFGKDKREHTILIANVKPYLKAKRALSPLLQEVPSASSSPTKACIEPCTSTKGSLDGCEAKPGALAEASSQYLPTDSQYLSPSKQPRDPPFMASDQMARVFADVHSRASRDSSEMGAVLEQLDHPNRDLGRESVDAEEVVREIDKLLQDCRGNDPVAVRK | −1.232 | 
8 | IL-6RA (protein, UniProt P08887 20-468, looked up) Interleukin-6 receptor …: LAPRRCPAQEVARGVLTSLPGDSVTLTCPGVEPEDNATVHWVLRKPAAGSHPSRWAGMGRRLLLRSVQLHDSGNYSCYRAGRPAGTVHLLVDVPPEEPQLSCFRKSPLSNVVCEWGPRSTPSLTTKAVLLVRKFQNSPAEDFQEPCQYSQESQKFSCQLAVPEGDSSFYIVSMCVASSVGSKFSKTQTFQGCGILQPDPPANITVTAVARNPRWLSVTWQDPHSWNSSFYRLRFELRYRAERSKTFTTWMVKDLQHHCVIHDAWSGLRHVVQLRAQEEFGQGEWSEWSPEAMGTPWTESRSPPAENEVSTPMQALTTNKDDDNILFRDSANATSLPVQDSSSVPLPTFLVAGGSLAFGTLLCIAIVLRFKKTWKLRALKEGKTSMHPPYSLGQLVPERPRPTPVLVPLISPPVSPSSLGSDNTSSHNRPDARDPRSPYDISNTDYFFPR | −1.1901 | 
9 | CKAP4 (protein, UniProt Q07065 1-602, looked up) Cytoskeleton-associated …: MPSAKQRGSKGGHGAASPSEKGAHPSGGADDVAKKPPPAPQQPPPPPAPHPQQHPQQHPQNQAHGKGGHRGGGGGGGKSSSSSSASAAAAAAAASSSASCSRRLGRALNFLFYLALVAAAAFSGWCVHHVLEEVQQVRRSHQDFSRQREELGQGLQGVEQKVQSLQATFGTFESILRSSQHKQDLTEKAVKQGESEVSRISEVLQKLQNEILKDLSDGIHVVKDARERDFTSLENTVEERLTELTKSINDNIAIFTEVQKRSQKEINDMKAKVASLEESEGNKQDLKALKEAVKEIQTSAKSREWDMEALRSTLQTMESDIYTEVRELVSLKQEQQAFKEAADTERLALQALTEKLLRSEESVSRLPEEIRRLEEELRQLKSDSHGPKEDGGFRHSEAFEALQQKSQGLDSRLQHVEDGVLSMQVASARQTESLESLLSKSQEHEQRLAALQGRLEGLGSSEADQDGLASTVRSLGETQLVLYGDVEELKRSVGELPSTVESLQKVQEQVHTLLSQDQAQAARLPPQDFLDRLSSLDNLKASVSQVEADLKMLRTAVDSLVAYSVKIETNENNLESAKGLLDDLRNDLDRLFVKVEKIHEKV | −1.1904 | 
10 | ARG1 (protein, UniProt P05089 1-322, looked up) Arginase-1: MSAKSRTIGIIGAPFSKGQPRGGVEEGPTVLRKAGLLEKLKEQECDVKDYGDLPFADIPNDSPFQIVKNPRSVGKASEQLAGKVAEVKKNGRISLVLGGDHSLAIGSISGHARVHPDLGVIWVDAHTDINTPLTTTSGNLHGQPVSFLLKELKGKIPDVPGFSWVTPCISAKDIVYIGLRDVDPGEHYILKTLGIKYFSMTEVDRLGIGKVMEETLSYLLGRKKRPIHLSFDVDGLDPSFTPATGTPVVGGLTYREGLYITEEIYKTGLLSGLDIMEVNPSLGKTPEEVTRTVNTAVAITLACFGLAREGNHKPIDYLNPPK | −1.3036 | 
11 | C1QTNF1 (protein, UniProt Q9BXJ1 26-281, looked up) Complement C1q tumor necrosis …: RVPHVQGEQQEWEGTEELPSPPDHAERAEEQHEKYRPSQDQGLPASRCLRCCDPGTSMYPATAVPQINITILKGEKGDRGDRGLQGKYGKTGSAGARGHTGPKGQKGSMGAPGERCKSHYAAFSVGRKKPMHSNHYYQTVIFDTEFVNLYDHFNMFTGKFYCYVPGLYFFSLNVHTWNQKETYLHIMKNEEEVVILFAQVGDRSIMQSQSLMLELREQDQVWVRLYKGERENAIFSEELDTYITFSGYLVKHATEP | −1.2979 | 
12 | ATG4A (protein, UniProt Q8WYN0 1-398, looked up) Cysteine protease ATG4A: MESVLSKYEDQITIFTDYLEEYPDTDELVWILGKQHLLKTEKSKLLSDISARLWFTYRRKFSPIGGTGPSSDAGWGCMLRCGQMMLAQALICRHLGRDWSWEKQKEQPKEYQRILQCFLDRKDCCYSIHQMAQMGVGEGKSIGEWFGPNTVAQVLKKLALFDEWNSLAVYVSMDNTVVIEDIKKMCRVLPLSADTAGDRPPDSLTASNQSKGTSAYCSAWKPLLLIVPLRLGINQINPVYVDAFKECFKMPQSLGALGGKPNNAYYFIGFLGDELIFLDPHTTQTFVDTEENGTVNDQTFHCLQSPQRMNILNLDPSVALGFFCKEEKDFDNWCSLVQKEILKENLRMFELVQKHPSHWPPFVPPAKPEVTTTGAEFIDSTEQLEEFDLEEDFEILSV | −1.3651 | 
